Patent publication US20220289845A1

How the values were obtained:
human CD47 [1] = target: human CD47 (UniProt Q08722); assay: SPR; average
cynomolgus CD47 [2] = assay: SPR; average
human CD47 [3] = target: human CD47 (UniProt Q08722); assay: SPR; assay 2
cynomolgus CD47 [4] = assay: SPR; assay 2
human CD47 [5] = target: human CD47 (UniProt Q08722); assay: SPR; assay 1
cynomolgus CD47 [6] = assay: SPR; assay 1

Chain of cynomolgus CD47 (Q08722 other isoform, or with tags, fused parts or gaps): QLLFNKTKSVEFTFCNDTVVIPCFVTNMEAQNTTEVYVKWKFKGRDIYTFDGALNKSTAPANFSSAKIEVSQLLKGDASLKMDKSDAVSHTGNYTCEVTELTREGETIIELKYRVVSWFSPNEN
Chain of human CD47 (Q08722 19-142): as the sequence (Q08722 other isoform, or with tags, fused parts or gaps) above, with A59V, A61T, N62D counted along it

Q: Which results are given for Hu5F9-G4?
A: Kd (human CD47 [1]): 8 pM; Kd (cynomolgus CD47 [2]): 10 pM; Kd (human CD47 [3]): 2.02 pM; Kd (cynomolgus CD47 [4]): 7.24 pM; Kd (human CD47 [5]): 14.3 pM; Kd (cynomolgus CD47 [6]): 12.1 pM
